Changes are numbered by the printed parent chain.
B1: Bis-108-H3L4 (bispecific antibody, not shown: a dimerising Fc or GST)
heavy: EVQLVQSGAEVKKPGASVKVSCKASGYTFTSYVIHWVRQAPGQGLEWMGYFNPYNDGTKYNEEFKGRVTLTSDKSTSTAYMELRSLRSDDTAVYYCARGGVRRYFDVWGQGTTVTVSS
heavy (part 1 of 2): B1 heavy
heavy (part 2 of 2): GGGGSGGGGSEVQLVESGGGLVQPGGSLRLSCAASGFTFNTYAMNWVRQAPGKGLEWVARIRSKYNNYATYYAASVKGRFTISRDDSKNSLYLQMNSLKTEDTAVYYCARHGNFGNSYVSWFAYWGQGTLVTVSSGGGGSGGGGSGGGGSGGGGSQTVVTQEPSLTVSPGGTVTLTCRSSTGAVTTSNYANWVQQKPGQAPRGLIGGTNKRAPGTPARFSGSLLGGKAALTLSGVQPEDEAEYYCALWYSNLWVFGGGTKLTVLGGGGSGGGGS
light: DIQMTQSPSSLSASVGDRVTITCRASQDIGSNLNWLQQKPGKAIKRLIYATFGLDSGVPSRFSGSRSGTDFTLTISSLQPEDFATYYCQQYASFPYTFGGGTKVEIK
B2: Bis-108-H2L4 (bispecific antibody, not shown: a dimerising Fc or GST)
heavy: B1 heavy with M48I, V68A, L70M, S72T, K74T
heavy (part 1 of 2): B1 heavy with M48I, V68A, L70M, S72T, K74T
heavy (part 2 of 2): B1 heavy (part 2 of 2)
light: B1 light
B3: Bis-108-H1L4 (bispecific antibody, not shown: a dimerising Fc or GST)
heavy: B1 heavy with L70M, S72T, K74T
heavy (part 1 of 2): B1 heavy with L70M, S72T, K74T
heavy (part 2 of 2): B1 heavy (part 2 of 2)
light: B1 light
B4: Bis-108-H5L3 (bispecific antibody, not shown: a dimerising Fc or GST)
heavy: B1 heavy with R38K, M48I, R67K, V68A, S72T
heavy (part 1 of 2): B1 heavy with R38K, M48I, R67K, V68A, S72T
heavy (part 2 of 2): B1 heavy (part 2 of 2)
light: B1 light with R66G, F71Y
B5: ATG-Bis-108 (bispecific antibody, not shown: a dimerising Fc or GST)
heavy: EVQLQQSGPELVKPGASVKMSCKASGYTFTSYVIHWVKQKTGQGLEWIGYFNPYNDGTKYNEEFKGKATLTSDKSSNTAYMELNSLTSDDSAVYFCARGGVRRYFDVWGAGTTVTVSS
heavy (part 1 of 2): B5 heavy
heavy (part 2 of 2): B1 heavy (part 2 of 2)
light: DIQMTQSPSSLSASLGERVSLTCRASQDIGSNLNWLQQEPDGTIKRLIYATFGLDSGVPKRFSGSRSGSDYSLTISSLESEDFVDYYCQQYASFPYTFGGGTKLEIK

Biological target: GPRC5D (G-protein coupled receptor family C group 5 member D), human, on multiple myeloma cell lines (human) (UniProt Q9NZD1)
Sequence (Q9NZD1 whole entry): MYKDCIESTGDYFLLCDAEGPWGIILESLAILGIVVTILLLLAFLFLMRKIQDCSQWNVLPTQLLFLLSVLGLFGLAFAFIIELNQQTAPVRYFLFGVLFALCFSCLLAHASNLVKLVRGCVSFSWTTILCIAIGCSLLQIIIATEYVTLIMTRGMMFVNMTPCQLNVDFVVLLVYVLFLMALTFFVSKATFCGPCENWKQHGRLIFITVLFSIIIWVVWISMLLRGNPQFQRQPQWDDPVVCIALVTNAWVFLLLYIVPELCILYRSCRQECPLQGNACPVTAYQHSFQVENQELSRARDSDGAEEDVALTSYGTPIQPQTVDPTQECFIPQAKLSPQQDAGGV
Test: cell-based or functional assay

First: B1
Second: B2
The IC50 (nM), T-Cell Dependent Cytotoxicity, MM.1S of the first is 1.9-fold lower: 0.0496 nM for the first, 0.0934 nM for the second.

Compared with B3, B4 is 1.5-fold higher in IC50 (nM), T-Cell Dependent Cytotoxicity, MM.1S: 0.0597 nM for the first, 0.0897 nM for the second.

In the case of B5, the IC50 (nM), T-Cell Dependent Cytotoxicity, MM.1S is reported as 0.0871 nM.

Going from B1 to B2, the Top (%), T-Cell Dependent Cytotoxicity, MM.1S rises from 72.4% to 74%.

Compared with B3, B4 is lower in Top (%), T-Cell Dependent Cytotoxicity, MM.1S: 75.5% for the first, 74.8% for the second.

Binder B5 has a Top (%), T-Cell Dependent Cytotoxicity, MM.1S of 77.2%.

Reference: patent US20260193348A1
